Measured values from the supplement of paper PMC10567573.

B1: TTC32 (parent)
chain: YSAYIRRCACAASSDESPGSKCSP
B2: EHMT1 (parent)
chain: EEINKNISDFGRQQLLPPFPSLHQ

Variants of: B1
Assay: protein stability index of a GFP-peptide fusion (GPS, HEK-293T) (PSI 1-6); higher = more stable
Conditions: c terminus: a fixed tail appended
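Also: lentivirally expressed fusions sorted by FACS into six bins by GFP to DsRed ratio, PSI derived from sequencing read proportions per bin multiplied by bin number.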

First: YSAYIRRCACAASSDESPGPKCSP [S20P]
Second: YSAYIRRCACAASSDESPGLKCSP [S20L]
The protein stability index of the first is lower: 1.68 for the first, 2.15 for the second.

Going from YSAYIRRCACAASSDESPGFKCSP [S20F] to YSAYIRRCACAASSDESPGEKCSP [S20E], the protein stability index rises from 1.93 to 2.15.

First: YSAYIRRCACAASSDESPGCKCSP [S20C]
Second: YSAYIRRCACAASSDESPGYKCSP [S20Y]
The protein stability index of the first is higher: 3.96 for the first, 1.61 for the second.

Compared with YSAYIRRCACAASSDESPGAKCSP [S20A], YSAYIRRCACAASSDESPGHKCSP [S20H] is higher in protein stability index: 2.13 for the first, 2.8 for the second.

Compared with YSAYIRRCACAASSDESPGRKCSP [S20R], YSAYIRRCACAASSDESPGWKCSP [S20W] is higher in protein stability index: 1.65 for the first, 1.85 for the second.

First: YSAYIRRCACAASSDESPGTKCSP [S20T]
Second: YSAYIRRCACAASSDESPGGKCSP [S20G]
The protein stability index of the first is higher: 2.14 for the first, 1.97 for the second.

Compared with YSAYIRRCACAASSDESPGNKCSP [S20N], YSAYIRRCACAASSDESPGMKCSP [S20M] is higher in protein stability index: 2.11 for the first, 2.12 for the second.

Going from YSAYIRRCACAASSDESPGKKCSP [S20K] to YSAYIRRCACAASSDESPGIKCSP [S20I], the protein stability index falls from 2.23 to 1.85.

YSAYIRRCACAASSDESPGQKCSP [S20Q] showed a protein stability index of 2.21.

Variants of: B2
Assay: as above
Conditions: c terminus: a fixed tail appended

First: EEIEKNISDFGRQQLLPPFPSLHQ [N4E]
Second: EEIVKNISDFGRQQLLPPFPSLHQ [N4V]
The protein stability index of the first is higher: 2.86 for the first, 2.53 for the second.

First: EEICKNISDFGRQQLLPPFPSLHQ [N4C]
Second: EEIDKNISDFGRQQLLPPFPSLHQ [N4D]
The protein stability index of the first is lower: 2.45 for the first, 3.26 for the second.

Going from EEIKKNISDFGRQQLLPPFPSLHQ [N4K] to EEIAKNISDFGRQQLLPPFPSLHQ [N4A], the protein stability index rises from 2.55 to 2.63.

First: EEITKNISDFGRQQLLPPFPSLHQ [N4T]
Second: EEIFKNISDFGRQQLLPPFPSLHQ [N4F]
The protein stability index of the first is higher: 2.33 for the first, 2.15 for the second.

First: EEIGKNISDFGRQQLLPPFPSLHQ [N4G]
Second: EEILKNISDFGRQQLLPPFPSLHQ [N4L]
The protein stability index of the first is lower: 2.48 for the first, 2.69 for the second.

Going from EEIMKNISDFGRQQLLPPFPSLHQ [N4M] to EEIHKNISDFGRQQLLPPFPSLHQ [N4H], the protein stability index rises from 2.52 to 2.94.

Compared with EEIRKNISDFGRQQLLPPFPSLHQ [N4R], EEIWKNISDFGRQQLLPPFPSLHQ [N4W] is lower in protein stability index: 2.73 for the first, 2.15 for the second.

Compared with EEIIKNISDFGRQQLLPPFPSLHQ [N4I], EEIPKNISDFGRQQLLPPFPSLHQ [N4P] is higher in protein stability index: 2.02 for the first, 2.69 for the second.

Compared with EEIQKNISDFGRQQLLPPFPSLHQ [N4Q], EEIYKNISDFGRQQLLPPFPSLHQ [N4Y] is lower in protein stability index: 2.7 for the first, 2.01 for the second.

First: EEISKNISDFGRQQLLPPFPSLHQ [N4S]
Second: EEGNKNISDFGRQQLLPPFPSLHQ [I3G]
The protein stability index of the first is lower: 2.45 for the first, 3.01 for the second.

First: EEKNKNISDFGRQQLLPPFPSLHQ [I3K]
Second: EEQNKNISDFGRQQLLPPFPSLHQ [I3Q]
The protein stability index of the first is higher: 3.02 for the first, 2.69 for the second.

Compared with EEHNKNISDFGRQQLLPPFPSLHQ [I3H], EERNKNISDFGRQQLLPPFPSLHQ [I3R] is lower in protein stability index: 2.71 for the first, 2.69 for the second.

First: EENNKNISDFGRQQLLPPFPSLHQ [I3N]
Second: EEWNKNISDFGRQQLLPPFPSLHQ [I3W]
The protein stability index of the first is higher: 3.31 for the first, 2.39 for the second.

Going from EEFNKNISDFGRQQLLPPFPSLHQ [I3F] to EEPNKNISDFGRQQLLPPFPSLHQ [I3P], the protein stability index falls from 2.91 to 2.68.

First: EECNKNISDFGRQQLLPPFPSLHQ [I3C]
Second: EEANKNISDFGRQQLLPPFPSLHQ [I3A]
The protein stability index of the first is lower: 2.76 for the first, 3.1 for the second.

Compared with EEVNKNISDFGRQQLLPPFPSLHQ [I3V], EEYNKNISDFGRQQLLPPFPSLHQ [I3Y] is lower in protein stability index: 2.9 for the first, 2.7 for the second.

First: EEENKNISDFGRQQLLPPFPSLHQ [I3E]
Second: EESNKNISDFGRQQLLPPFPSLHQ [I3S]
The protein stability index of the first is higher: 3.78 for the first, 3.13 for the second.

First: EETNKNISDFGRQQLLPPFPSLHQ [I3T]
Second: EELNKNISDFGRQQLLPPFPSLHQ [I3L]
The protein stability index of the first is higher: 3.11 for the first, 2.95 for the second.

Going from EEMNKNISDFGRQQLLPPFPSLHQ [I3M] to EEDNKNISDFGRQQLLPPFPSLHQ [I3D], the protein stability index rises from 2.74 to 3.77.

First: HEINKNISDFGRQQLLPPFPSLHQ [E1H]
Second: AEINKNISDFGRQQLLPPFPSLHQ [E1A]
The protein stability index of the first is higher: 2.56 for the first, 2.47 for the second.

Compared with REINKNISDFGRQQLLPPFPSLHQ [E1R], WEINKNISDFGRQQLLPPFPSLHQ [E1W] is lower in protein stability index: 2.55 for the first, 1.91 for the second.

Compared with GEINKNISDFGRQQLLPPFPSLHQ [E1G], SEINKNISDFGRQQLLPPFPSLHQ [E1S] is higher in protein stability index: 2.7 for the first, 3.23 for the second.

Compared with NEINKNISDFGRQQLLPPFPSLHQ [E1N], TEINKNISDFGRQQLLPPFPSLHQ [E1T] is higher in protein stability index: 2.44 for the first, 2.9 for the second.

Going from LEINKNISDFGRQQLLPPFPSLHQ [E1L] to CEINKNISDFGRQQLLPPFPSLHQ [E1C], the protein stability index rises from 2.42 to 2.44.

Compared with YEINKNISDFGRQQLLPPFPSLHQ [E1Y], PEINKNISDFGRQQLLPPFPSLHQ [E1P] is higher in protein stability index: 2.11 for the first, 2.54 for the second.

Going from QEINKNISDFGRQQLLPPFPSLHQ [E1Q] to IEINKNISDFGRQQLLPPFPSLHQ [E1I], the protein stability index falls from 2.73 to 1.76.

Going from VEINKNISDFGRQQLLPPFPSLHQ [E1V] to FEINKNISDFGRQQLLPPFPSLHQ [E1F], the protein stability index rises from 2.22 to 2.3.

Compared with MEINKNISDFGRQQLLPPFPSLHQ [E1M], DEINKNISDFGRQQLLPPFPSLHQ [E1D] is higher in protein stability index: 2.35 for the first, 2.58 for the second.

First: KEINKNISDFGRQQLLPPFPSLHQ [E1K]
Second: EEINANISDFGRQQLLPPFPSLHQ [K5A]
The protein stability index of the first is lower: 2.74 for the first, 3.05 for the second.

Compared with EFINKNISDFGRQQLLPPFPSLHQ [E2F], EMINKNISDFGRQQLLPPFPSLHQ [E2M] is higher in protein stability index: 1.74 for the first, 2.24 for the second.

First: EQINKNISDFGRQQLLPPFPSLHQ [E2Q]
Second: EAINKNISDFGRQQLLPPFPSLHQ [E2A]
The protein stability index of the first is higher: 2.36 for the first, 2.3 for the second.

Compared with EWINKNISDFGRQQLLPPFPSLHQ [E2W], ENINKNISDFGRQQLLPPFPSLHQ [E2N] is higher in protein stability index: 1.73 for the first, 2.29 for the second.

Going from EYINKNISDFGRQQLLPPFPSLHQ [E2Y] to ETINKNISDFGRQQLLPPFPSLHQ [E2T], the protein stability index rises from 1.58 to 2.85.

Going from ERINKNISDFGRQQLLPPFPSLHQ [E2R] to ELINKNISDFGRQQLLPPFPSLHQ [E2L], the protein stability index rises from 2.17 to 2.21.

Compared with EKINKNISDFGRQQLLPPFPSLHQ [E2K], EIINKNISDFGRQQLLPPFPSLHQ [E2I] is lower in protein stability index: 2.64 for the first, 2.14 for the second.

First: ESINKNISDFGRQQLLPPFPSLHQ [E2S]
Second: EVINKNISDFGRQQLLPPFPSLHQ [E2V]
The protein stability index of the first is higher: 2.35 for the first, 2.12 for the second.

First: EDINKNISDFGRQQLLPPFPSLHQ [E2D]
Second: ECINKNISDFGRQQLLPPFPSLHQ [E2C]
The protein stability index of the first is higher: 2.72 for the first, 2.35 for the second.

Going from EPINKNISDFGRQQLLPPFPSLHQ [E2P] to EGINKNISDFGRQQLLPPFPSLHQ [E2G], the protein stability index falls from 2.65 to 2.51.

In the case of EHINKNISDFGRQQLLPPFPSLHQ [E2H], the protein stability index is reported as 1.96.
